{"source": "patent US20170240633A1", "about": "(published 2017)", "binders": {"B1": {"name": "anti-TIM-3 antibody clone G7 (antibody, V domains shown)", "VH": "EVQLVQSGAEVKKPGASVKVSCKASGYTFTSYYMHWVRQAPGQGLEWMGIINPSGGSTSYAQKFQGRVTMTRDTSTSTVYMELSSLRSEDTAVYYCARDQYSSGWYYYGMDVWGQGTTVTVSS", "VL": "not shown", "notes": "ELISA and SPR are described for Fab; The format in each assay is not clearly stated"}, "B2": {"name": "anti-TIM-3 antibody clone G9 (antibody, V domains shown)", "VH": "B1 VH with E1Q, V5Q, Q100L, S103Y, W105F", "VL": "not shown", "notes": "as for B1"}, "B3": {"name": "anti-TIM-3 antibody clone G6 (antibody, V domains shown)", "VH": "QVQLQESGPGLVKPSGTLSLTCAVSGGSISSSNWWSWVRQPPGKGLEWIGEIYHSGSTNYNPSLKSRVTISVDKSKNQFSLKLSSVTAADTAVYYCARVVAVAGTVDYWGQGTLVTVSS", "VL": "not shown", "notes": "as for B1"}, "B4": {"name": "anti-TIM-3 antibody clone B10 (antibody, V domains shown)", "VH": "QVQLQESGPGLVKASETLSLTCTVSGGSIGSSDYYWGWIRQPPGKGLEWIGSIYYSGSTYYNPSLKSRVTMSVDTPNNQFSLKLSSVTAADTAVYYCARGEHRGEFDYWGQGTLVTVSS", "VL": "EIVLTQSPATLSFSPGERATLSCRASQSVGSYLAWYQQRPGQAPRPLIYDATNRATGIPTRFSGSGSGTDFTLTISSLEPEDFATYYCQHRRTFGRGTKLEIK", "notes": "as for B1"}, "B5": {"name": "anti-TIM-3 antibody clone A3 (antibody, V domains shown)", "VH": "QVQLVQSGAEVKKPGASVKVSCKASGYTFTSYYMHWVRQAPGQGLEWMGIINPSGGSTSYAQKFQGRVTMTRDTSTSTVYMELSSLRSEDTAVYYCARSPGVVTALFDYWGQGTLVTVSS", "VL": "DIQMTQSPSFMSASVGDRVTITCRASQDIGSYLAWYQQKPGKAPKLLIYAASTLQSGVPSRFSGSGSGTDFTLTINSLQPEDFATYYCQQSYSSPPTFGPGTTLEIK", "notes": "From a human phage display library; ELISA screening used Fab-containing supernatants and SPR speaks of 'each candidate Fab'; The format in each assay is not clearly stated"}, "B6": {"name": "anti-TIM-3 antibody clone A11 (antibody, V domains shown)", "VH": "QVQLQQWGAGLLKPSETLSLTCAVYGGSFSGYYWSWIRQPPGKGLEWIGEINHSGSTNYNPSLKSRVTISVDTSKNQFSLKLSSVTAADTAVYYCARGYVAGFDYWGQGTLVTVSS", "VL": "QSVVTQPPSVSAAPGQKVTISCSGSSSNIGNNYVSWYQQLPGTAPKLLIYGNNWRPSGIPDRFSGSKSGTSATLAISGLQTGDEADYYCETWDSSLSAGVFGGGTKLTVL", "notes": "as for B1"}}, "note": "Positions count from the first letter of the chain named.", "data": [{"molecular_target": "T1, human TIM-3 coupled to human Fc (human, UniProt Q8TDQ0 22-200, limits assumed)", "T1 construct": "Antigen coated on ELISA plates and immobilised on the SPR chip; not shown: human Fc", "experiment": "ELISA on plate-coated human TIM-3 coupled to human Fc", "values": [{"binder": "B1", "binding result": "binds"}, {"binder": "B2", "binding result": "binds"}, {"binder": "B3", "binding result": "binds"}, {"binder": "B4", "binding result": "binds"}, {"binder": "B5", "binding result": "binds"}, {"binder": "B6", "binding result": "binds"}]}]}
